Experimental data as given in publication PMC6764022 (ACS Nano, 2019).
Bridges are numbered along the chain shown (N, C = ends). Roman numbers before positions name the chains, in order. Where no end group is shown, it is not given here. [ ]: non-standard residue; d: D form. Lys(N3) = [N-]=[N+]=NCCCC[C@H](N)C(=O)O

Experiments:
[1] = Sedimentation equilibrium analytical ultracentrifugation (AUC); assay type: physicochemical; conditions: PBS, 20 °C; for Oligomeric state (Table S3), reduced / MWAUC (Table S3), reduced: 10 fold excess of TCEP; for Oligomeric state (Table S3), reduced / MWAUC (Table S3), reduced / Oligomeric state (Table S3) / oligomeric state by AUC, in words: 55 μM; for MWAUC (Table S3), reduced: 280 nm (235 nm for the KE peptides); for MWAUC (Table S3): 55 μM each, 44–60 krpm, single ideal species, 280 nm (235 nm for CC-Di-KE), performed once, 99% confidence limits in separate column; for Oligomeric state (Table S3): single run
[2] = CD spectra and thermal unfolding; assay type: physicochemical; conditions: 5 °C, 50 μM, neutral pH (PBS pH 7.4)
Experimental: Figure 1 Biophysical characterization of the coiled-coil heterodimer formed between charge-neutral peptides CC-Di-EK and CC-Di-KE. (a) CD spectra recorded at 5 °C and (b) thermal unfolding (filled symbols, solid line) and refolding (open symbols, dashed line) profiles, monitored through the CD signal at 222 nm, of the individual peptides CC-Di-EK (red, circles) and CC-Di-KE (blue, squares) and of an equimolar mixture of CC-Di-EK:KE (purple, triangles). The average of the spectra of the individual peptides is shown in black (no symbols). […] Representative data from a minimum of three replicates are shown. Conditions: each peptide 50 μM in PBS (pH 7.4), 1 mm path length quartz cuvette. […]
(§1) Exceptions were CC-Di-EK-Z and Z-CC-Di-KE, the masses of which were confirmed by infusing sample from an Advion Nanomate Triverser (Nanospray source) at 1.4 kV into a Waters Synapt G2S IMS Q -TOF mass spectrometer. Peptide purity was determined to be >95% using a JACSO HPLC system set up with an analytical reverse phase Phenomenex Kinete x C18 column (5  µM particle size; 100 Å pore size; 100 x 4.6 mm) running linear gradients of buffer B vs. buffer A.
(§2) Peptide Concentration determinations. Peptide concentrations were determined in H 2O by UV-vis absorption at 280 nm on a Nanodrop 2000 (Thermo Scientific) using the following extinction coefficients: […]

ssDNA tags = experiment: CD test of interaction of peptides with ssDNA tags; assay type: binding; conditions: CD spectra (Figure S6a,b)
Source text: Peptide modelling. Parametric models for all six combinations of CC-Di-EK and CC-Di-KE as hetero and homodimeric parallel and antiparallel coiled coils were generated using ISAMBARD (https://github.com/woolfson -group/isambard).1 These were optimized for BUDE Interaction Energy in ISAMBARD using a genetic algorithm which generated 30,000 models per combination over 3 0 generations with 1,000 models in each. To ensure that we generated useful models, we restricted geometric parameters to values consistent with coiled -coil dimers. For both the parallel and antiparallel […]
z shift = 0 ± 5 Å. Optimizations were repeated three times for each combination.
Peptide purification. […]
as §1, §2

[3] = target: the molecule itself; experiment: AUC; sedimentation equilibrium of the disulfide-linked heterodimers, 55 µM in PBS, 20 °C, 24-39 krpm in 3 krpm steps (colour key of Figure S3 o, p), fits to a single ideal species
[4] = target: the molecule itself; experiment: AUC; sedimentation equilibrium, 55 µM of each peptide in PBS pH 7.4, 20 °C, 44-60 krpm, fits to a single ideal species
[5] = target: the molecule itself; experiment: AUC; sedimentation equilibrium, 55 µM of each peptide in PBS, 20 °C, with TCEP reducing agent (10-fold excess; for the pair 5-fold relative to total peptide), fits to a single ideal species
[6] = target: the molecule itself; experiment: counting of free and bound DNA origami nanostructures in electron micrographs (TEM); peptides displayed on DNA origamis A and B through oligonucleotide tags; gel-purified An and Bn mixed, total monomer concentrations 0.25-2.4 nM; background of random coincidences subtracted; Kd from the slope of a linear fit through the origin; additional systematic error of approximately 20%
CC-Di-KE = target: T1, CC-Di-KE (N-terminal acetylation (methods, said of the peptides in general)); experiment: circular dichroism thermal unfolding, concentration dependence of TM; Kd for heterodimerization estimated from the concentration dependence of the TM of free peptides in solution; conditions: both partners purified
T1 chain: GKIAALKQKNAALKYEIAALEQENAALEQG

Ac-G KIAALKQ KNAALKY EIAALEQ ENAALEQ GC-NH2 (Ac-GKIAALKQKNAALKYEIAALEQENAALEQGC-NH2) [CC-Di-KE-C, CC-Di-KE with C-terminal Cys]
Oligomeric state (Table S3), reduced [1]: 0.92 x monomer | MWAUC (Table S3), reduced [1]: 3062 Da

Ac-G EIAALEQ EIAALEQ KNAALKW KIAALKQ G-NH2 (Ac-GEIAALEQEIAALEQKNAALKWKIAALKQG-NH2) [CC-Di-EN4, 4-heptad coiled-coil peptide withone asparagine]
MWAUC (Table S3) [1]: 6079 Da | Oligomeric state (Table S3) [1]: 1.87 x monomer

Ac-G KIAALKQ KNAALKY EIAALEQ ENAALEQ G-NH2 (Ac-GKIAALKQKNAALKYEIAALEQENAALEQG-NH2) [CC-Di-KE, charge-neutral coiled-coil peptide, partner of CC-Di-EK]
MWAUC (Table S3) [1]: 3096 Da | Oligomeric state (Table S3) [1]: 0.96 x monomer | oligomeric state by AUC, in words [1]: monomers | folding state by CD [2]: either largely or fully unfolded | interaction with ssDNA tags (ssDNA tags): no interaction

Ac-G EIAALEQ ENAALEQ KIAALKW KNAALKQ G-NH2 (Ac-GEIAALEQENAALEQKIAALKWKNAALKQG-NH2) [CC-Di-EK, charge-neutral coiled-coil peptide, four heptads, asparagines at two a sites]
MWAUC (Table S3) [1]: 3274 Da | Oligomeric state (Table S3) [1]: 1.00 x monomer | oligomeric state by AUC, in words [1]: monomers | folding state by CD [2]: either largely or fully unfolded | interaction with ssDNA tags (ssDNA tags): no interaction

Ac-G EIAALEQ ENAALEQ KIAALKW KNAALKQ GC-NH2 | Ac-G KIAALKQ KNAALKY EIAALEQ ENAALEQ GC-NH2 (disulfide) [CC-Di-EK-C | CC-Di-KE-C, obligate heterodimer linked by disulfide via both C-termini]
Oligomeric state (Table S3), disulfide-linked heterodimer ([1]; 24–39 krpm (Figure S3 o, p)): 1.00 x obligate dimer | MWAUC (Table S3), disulfide-linked heterodimer ([1]; 24–39 krpm (Figure S3 o, p), 280 nm): 6695 Da

Ac-G EIAALEQ ENAALEQ KIAALKW KNAALKQ GC-NH2 (Ac-GEIAALEQENAALEQKIAALKWKNAALKQGC-NH2) [CC-Di-EK-C, CC-Di-EK with C-terminal Cys]
Oligomeric state (Table S3), reduced [1]: 1.04 x monomer | MWAUC (Table S3), reduced [1]: 3474 Da

Ac-G EIAALEQ KNAALKW KIAALKQ G-NH2 (Ac-GEIAALEQKNAALKWKIAALKQG-NH2) [CC-Di-EN3, 3-heptad coiled-coil peptide]
MWAUC (Table S3) [1]: 2369 Da | Oligomeric state (Table S3) [1]: 0.95 x monomer

Ac-CGG KIAALKQ KNAALKY EIAALEQ ENAALEQ G-NH2 (Ac-CGGKIAALKQKNAALKYEIAALEQENAALEQG-NH2) [C-CC-Di-KE, CC-Di-KE with N-terminal Cys]
Oligomeric state (Table S3), reduced [1]: 0.92 x monomer | MWAUC (Table S3), reduced [1]: 3126 Da

Ac-CGG EIAALEQ ENAALEQ KIAALKW KNAALKQ G-NH2 (Ac-CGGEIAALEQENAALEQKIAALKWKNAALKQG-NH2) [C-CC-Di-EK, N-terminally Cys-labelled CC-Di-EK]
Oligomeric state (Table S3), reduced [1]: 1.96 x monomer | MWAUC (Table S3), reduced [1]: 6683 Da | oligomeric state by AUC, in words [1]: exists as a dimer in solution even under reducing conditions

Ac-G LEQ EIAALEQ KNAALKW KIAALKQ G-NH2 [CC-Di-EN3.5, 3.5-heptad coiled-coil peptide]
MWAUC (Table S3) [1]: 2982 Da | Oligomeric state (Table S3) [1]: 1.04 x monomer

B1: CC-Di-EK-C disulfide-linked to C-CC-Di-KE (opposite ends) (complex)
peptide 1: Ac-GEIAALEQENAALEQKIAALKWKNAALKQGC-NH2
peptide 2: Ac-CGGKIAALKQKNAALKYEIAALEQENAALEQG-NH2
modifications: disulfide I:31-II:1
stoichiometry N [3]: 2.6 x obligate dimer

B2: CC-Di-EN4 (peptide)
peptide: Ac-GEIAALEQEIAALEQKNAALKWKIAALKQG-NH2
stoichiometry N [4]: 1.87 x monomer

B3: C-CC-Di-EK (peptide)
peptide: Ac-CGGEIAALEQENAALEQKIAALKWKNAALKQG-NH2
stoichiometry N [5]: 1.96 x monomer

B4: B3: DNA origami B decorated with three β-CC-Di-KE (other)
chain: [Lys(N3)]GKIAALKQKNAALKYEIAALEQENAALEQG-NH2
modifications: also: tag β hybridised to handle of DNA origami B, three copies per origami
Kd [6]: 0.02 ± 0.003 µM

B5: CC-Di-EK (peptide)
chain: Ac-GEIAALEQENAALEQKIAALKWKNAALKQG-NH2
Kd (CC-Di-KE): 0.102 ± 0.026 µM
